Assay results reported in patent US20240325555A1 (LANOVA MEDICINES, published 2024).
Positions count from the first letter of the chain named.

T1: human LIV-1 (human, UniProt Q13433 29-755)
T1 construct: whole, on cells; also called H-LIV1
T1 sequence (looked up): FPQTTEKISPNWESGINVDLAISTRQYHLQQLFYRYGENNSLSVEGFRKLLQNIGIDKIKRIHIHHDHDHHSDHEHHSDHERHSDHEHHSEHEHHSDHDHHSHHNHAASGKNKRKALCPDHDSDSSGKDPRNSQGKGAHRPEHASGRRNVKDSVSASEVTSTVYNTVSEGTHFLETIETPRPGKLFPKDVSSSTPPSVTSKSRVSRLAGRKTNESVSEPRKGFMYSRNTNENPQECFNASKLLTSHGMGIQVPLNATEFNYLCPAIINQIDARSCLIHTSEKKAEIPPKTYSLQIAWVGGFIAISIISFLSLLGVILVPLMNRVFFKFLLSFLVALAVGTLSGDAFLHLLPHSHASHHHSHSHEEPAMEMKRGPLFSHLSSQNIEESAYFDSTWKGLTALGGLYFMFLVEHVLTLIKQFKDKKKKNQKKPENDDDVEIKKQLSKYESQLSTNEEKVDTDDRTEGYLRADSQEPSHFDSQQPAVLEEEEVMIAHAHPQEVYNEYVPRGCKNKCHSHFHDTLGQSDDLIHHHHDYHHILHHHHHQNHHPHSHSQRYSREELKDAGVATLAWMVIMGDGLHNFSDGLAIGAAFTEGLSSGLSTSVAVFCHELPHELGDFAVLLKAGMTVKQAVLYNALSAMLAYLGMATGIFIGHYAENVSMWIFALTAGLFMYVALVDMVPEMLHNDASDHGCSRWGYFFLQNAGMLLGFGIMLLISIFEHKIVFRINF

B1: 79F5G5 (antibody, V domains shown)
VH: EVQLQQSGAELVRSGASVKLSCTASGFNIKDYYMHWVKQRPEQGLEWIGWIDPENGDTEYAPKFQGKATLTADTSSNTAYLQLSSLTFEDTAVYYCPHGGGLRVFDYWGQGTSLTVSS
VL: DVLMTQIPLSLSVSLGDQASISCRSSQSIVHSNGNTYLEWYLQKPGQSPKLLIYKVSNRFSGVPDRFSGSGSGTDFTLKISRVEAEDLGVYYCFQGSHVPWTFGGGTKLEIK
notes: Tested as chimeric antibody
B2: 94C4B9 (antibody, V domains shown)
VH: EVQLQQSGTVLARPGASVKMSCKASGYTFINYWMHWVKQRPGQGLEWIGAFYPGNSDTSYNQKFKDKAKLTAVTSTSTAYMEFSSLTNEDSAVYYCTRDFTAVPYFDYWGQGTTLTVSS
VL: B1 VL with V2I, I7T, S12P, H98Y, W101L, G105V, I111L
notes: Tested as chimeric antibody
B3: 99B3E8 (antibody, V domains shown)
VH: B2 VH with A16T, K38R, K63N, Y105F
VL: B1 VL with I7T, S12P, H98Y, W101L, G105V, I111L
notes: Tested as chimeric antibody
B4: 90H4F8 (antibody, V domains shown)
VH: QVQLQQSGPELVKPGASVRISCKASGYTFTSYHMHWVKQRPGQGLEWIGWIYPGNVKNQSNEKFKGKATLTADKSSSTAYMHLSSLTSEDSAVYFCARSDITRAFFAYWGQGTLVTVSA
VL: B1 VL with I7T, S12P, V99G, W101Y
notes: Tested as chimeric antibody
B5: 92E4E10 (antibody, V domains shown)
VH: EVQLQQSGTVLARPGASVKISCKASGYRFTSYWMHWVKQRPGQGLEWIGAIYPGNSDTTYNQKFKGKAKLTAVTSASTAYMDLSSLTNEDSAVYYCTSLLLRSPFDYWGQGTTLTVSS
VL: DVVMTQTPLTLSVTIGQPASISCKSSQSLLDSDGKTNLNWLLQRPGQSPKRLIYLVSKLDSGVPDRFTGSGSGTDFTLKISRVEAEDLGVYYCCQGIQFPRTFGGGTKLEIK
notes: Tested as chimeric antibody
B6: 82C7C7 (antibody, V domains shown)
VH: EVQLQQSGAELVKPGASIKLSCTPSGFNIKDTFIHWVKQRPEQGLEWIGRIDPANGNTRYDPKFQGKATITADTSSNTAYLQLISLTSEDTAVYYCAGGSISTVVPDYWGQGTTLTVSS
VL: DVVVTQTPLSLPVSLGDQASISCRSSQSLVHNNGNTYLHWYLQKPGQSPKLLIYKVSNRFSGVPDRFSGSGSGTDFTLKISRVEAEDLGVYFCSQSTHVPYTFGGGTKLEIK
notes: Tested as chimeric antibody
B7: 124H4D11.p2.z15 (antibody, V domains shown)
VH: QVPLVQSGAEVVKPGASVKLSCKASGFNIKDYYMHWVKQAPGQGLEWIGWIDPENDDTEYDPKFQGRATMTADTSTSTAYLELSSLRSEDTAVYYCNARYYAFDYWGQGTTVTVSS
VL: B1 VL with I7S, S12P, S14T, D17Q, Q18P, G34A, K44R, D75E, H98Q, W101P
B8: 124H4D11.p2.z5 (antibody, V domains shown)
VH: B7 VH with P3Q, L20V, K38R, A68V, A79V, L81M, N97A, T111M
VL: B1 VL with I7S, S12P, S14T, D17Q, Q18P, G34A, K44R, D75E, H98Q, W101P
B9: 124H4D11.p2.z14 (antibody, V domains shown)
VH: B7 VH
VL: DVLMTQSPLSLPVTLGQPASISCRSSQSIVHSNANTYLEWYLQRPGQSPRLLIYKVSNRFSGVPDRFSGSGSGTDFTLKISRVEAEDVGVYYCFQGSQVPPTFGQGTKLEIK
B10: 5D6B10.Z5 (antibody, V domains shown)
VH: QVQLVESGGGVVQPGRSLRLSCTVSGFSLTTYGIHWVRQSPGKGLEWLGVIWTGGTTDYNAAFISRLTISKDNSKSTLYFQMNSLRAEDTAVYYCARGPSSYWGQGTLVTVSS
VL: EIVMTQSPATLSVSPGERATVSCKASQNVDTNVVWYQQKPGQSPRALIHSASYRYSGVPDRFSGSGSGTDFTLTISSLQSEDFAVYFCQQYNNYPWTFGQGTKVEIK
B11: 5D6B10.Z10 (antibody, V domains shown)
VH: QVQLQESGPGLVKPSGTLSLTCAVSGFSLTTYGIHWVRQSPGKGLEWLGVIWTGGTTDYNAAFISRLTISKDKSKNQVSLKLSSVTAADTAVYYCARGPSSYWGQGTLVTVSS
VL: B10 VL with V21L, H49Y, D60A, D70E
B12: 5D6B10.Z1 (antibody, V domains shown)
VH: B10 VH with T23A, S40A, G49A, L67F, F80L
VL: B10 VL with V21L, H49Y, D60A, D70E
B13: 5D6B10.Z11 (antibody, V domains shown)
VH: B11 VH
VL: B10 VL
B14: 5D6B10.Z9 (antibody, V domains shown)
VH: B10 VH with E6Q, L78V, R86Q, V92I
VL: B10 VL with E1D, A19V, L78V, Q100G, V104L
B15: 5D6B10.Z2 (antibody, V domains shown)
VH: B10 VH with T23A, S40A, G49A, L67F, F80L
VL: B10 VL
B16: 5D6B10.Z6 (antibody, V domains shown)
VH: B10 VH
VL: B10 VL with E1D, A19V, L78V, Q100G, V104L
B17: 5D6B10.Z3 (antibody, V domains shown)
VH: B10 VH with T23A, S40A, G49A, L67F, F80L
VL: B10 VL with E1D, A19V, L78V, Q100G, V104L
B18: 5D6B10.Z13 (antibody, V domains shown)
VH: B11 VH with E6Q, A23T, S79F, L80F, L82M, V85L
VL: B10 VL with V21L, H49Y, D60A, D70E
B19: 5D6B10.Z4 (antibody, V domains shown)
VH: B10 VH
VL: B10 VL with V21L, H49Y, D60A, D70E
B20: 5D6B10.Z8 (antibody, V domains shown)
VH: B10 VH with E6Q, L78V, R86Q, V92I
VL: B10 VL
B21: 5D6B10.Z12 (antibody, V domains shown)
VH: B11 VH
VL: B10 VL with E1D, A19V, L78V, Q100G, V104L
B22: 124H4D11.p2.z2 (antibody, V domains shown)
VH: B7 VH with P3Q, L20V, K38R, A68V, A79V, L81M, N97A, T111M
VL: DVLMTQSPSSLSASVGDRVTITCRSSQSIVHSNANTYLEWYLQKPGKSPKLLIYKVSNRFSGVPDRFSGSGSGTEFTLTISSVQPEDFAVYYCFQGSQVPPTFGQGTRLEIK

Molecular target: T1, human LIV-1
Assay: FACS, HEK293/H_LIV-1 cells
Protocol: (§1) In this example, cell based binding of chimeric Abs on human and cyno LIV-1 over-expressing HEK 293 cells were assessed using flow cytometry.
(§2) Briefly, cells were incubated with chimeric Abs (from 100 nM, 5 folds dilution, 8 points). After incubation at 4° C. for 60 minutes, the cells were washed with 2% FBS/PBS buffer twice, then stained with fluorescent conjugated secondary antibody at 4° C. for 30 minutes. After that the cells were washed twice and resuspended in 80 μL of 2% FBS/PBS buffer. Fluorescent signal of binding was detected using Agilent. The EC50 was calculated using the GraphPad Software (LaJolla, CA).

Row | EC50 [pM] | Top (MFI) | Binder
1 | 9450 | 17500 | B1
2 | 220 | 11600 | B2
3 | 1040 | 12600 | B3
4 | 1080 | 12200 | B4
5 | 340 | 66200 | B5
6 | 610 | 12300 | B6

Molecular target: T2, cynomolgus LIV-1 (cynomolgus, UniProt A0A2K5WH46 30-741)
Assay: FACS, HEK293/Cyno_LIV-1 cells
Target sequence in this assay (A0A2K5WH46 entry or part of it): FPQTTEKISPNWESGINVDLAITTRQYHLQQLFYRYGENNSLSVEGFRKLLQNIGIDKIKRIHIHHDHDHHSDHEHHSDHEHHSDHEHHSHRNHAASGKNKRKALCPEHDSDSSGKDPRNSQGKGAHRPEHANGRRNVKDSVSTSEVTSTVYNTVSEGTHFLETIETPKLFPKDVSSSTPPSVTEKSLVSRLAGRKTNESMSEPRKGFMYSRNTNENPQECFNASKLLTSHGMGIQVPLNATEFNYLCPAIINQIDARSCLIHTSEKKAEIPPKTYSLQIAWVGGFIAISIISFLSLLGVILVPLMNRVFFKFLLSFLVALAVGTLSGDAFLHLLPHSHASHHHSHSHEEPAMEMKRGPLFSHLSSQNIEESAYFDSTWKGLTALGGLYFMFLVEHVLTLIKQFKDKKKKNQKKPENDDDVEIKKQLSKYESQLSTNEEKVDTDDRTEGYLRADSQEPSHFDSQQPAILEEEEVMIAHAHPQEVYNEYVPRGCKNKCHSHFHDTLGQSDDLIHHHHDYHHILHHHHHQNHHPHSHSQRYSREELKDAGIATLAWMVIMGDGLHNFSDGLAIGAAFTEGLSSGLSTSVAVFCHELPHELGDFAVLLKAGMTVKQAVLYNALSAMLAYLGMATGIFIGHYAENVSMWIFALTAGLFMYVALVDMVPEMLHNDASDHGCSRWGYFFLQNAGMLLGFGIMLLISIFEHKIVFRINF

Row | EC50 [pM] | Top (MFI) | Binder
7 | 5370 | 6910 | B7
8 | 250 | 8070 | B8
9 | 500 | 7670 | B9
10 | 1720 | 12400 | B10
11 | 470 | 25800 | B11
12 | 130 | 19600 | B12
13 | 11600 | 18300 | B13
14 | 230 | 16500 | B14
15 | 4560 | 14900 | B15
16 | 160 | 16700 | B16
17 | 230 | 17200 | B17
18 | 500 | 26300 | B18
19 | 200 | 19800 | B19
20 | 4000 | 12100 | B20
21 | 460 | 24900 | B21
22 | 200 | 8390 | B22

Molecular target: T2, cynomolgus LIV-1
Assay: FACS, HEK293/Cyno_LIV-1 cells
Remark: another data set of the same source
Protocol: as §1, §2

Row | EC50 [pM] | Top (MFI) | Binder
23 | 1850 | 7020 | B1
24 | 150 | 7860 | B2
25 | 340 | 8240 | B3
26 | 430 | 6880 | B4
27 | 150 | 41300 | B5
28 | 500 | 7130 | B6

Molecular target: T1, human LIV-1
Assay: FACS, HEK293/H_LIV-1 cells
Remark: another data set of the same source
Protocol: In this example, cell based binding of humanized antibodies (hu Abs) on human LIV-1-expressing cells were assessed using flow cytometry.
Cell based binding of hu-Abs on human LIV-1 expressing cells were assessed using flow cytometry. Briefly, the HEK293/H_LIV-1 cells were incubated with hu-Abs (from 100 nM, 6 folds dilution, 8 points). After incubation at 4° C. for 60 minutes, the cells were washed with FACS buffer twice, then stained with fluorescent conjugated secondary antibody at 4° C. for 30 minutes. After that the cells were washed twice and analyzed by flow cytometry.

Row | Top (MFI) | EC50 [pM] | Binder
29 | 16800 |  | B7
30 | 15600 | 580 | B8
31 | 16800 |  | B9
32 | 43400 | 170 | B10
33 | 63800 | 420 | B11
34 | 49800 | 160 | B12
35 | 55300 | 290 | B13
36 | 52600 | 240 | B14
37 | 46700 | 180 | B15
38 | 52700 | 240 | B16
39 | 51200 | 330 | B17
40 | 64300 | 330 | B18
41 | 53000 | 280 | B19
42 | 45700 | 190 | B20
43 | 60300 | 300 | B21
44 | 19400 |  | B22
